Test results from article doi:10.1101/359695.

Key:
[1] = biological target: reconstituted 26S proteasome with Cy3-labeled base (Rpt1-I191AzF-Cy3) (S. cerevisiae) (UniProt P33299); assay: FRET or BRET
[2] = biological target: reconstituted 26S proteasome (S. cerevisiae), all wild-type components (S. cerevisiae) (UniProt P33299)

Row | Substance | FRET amplitude of tail insertion, percent of that of the 35-residue tail [1] [%] | further results
1 | ubiquitinated titin-I27^V15P-11 (11 AA tail), acceptor-labeled (from UniProt P0CG63 1-76) | 25 | 
2 | ubiquitinated titin-I27^V15P-1 (1 AA tail), acceptor-labeled (from UniProt P0CG63 1-76) | 16 | 
3 | ubiquitinated titin-I27^V15P-35 modified with Cy5 on its unstructured tail (from UniProt P0CG63 1-76) |  | time constant of tail insertion (FRET change) [1]: 1.6 s
4 | ubiquitinated 5-FAM-titin-I27^V15P-35 (from UniProt P0CG63 1-76) |  | KM of multiple-turnover degradation (Michaelis-Menten, anisotropy of 5-FAM) [2]: 0.22 µM
